The assay addresses Lrp transcriptional regulator from Haloferax mediterranei (HFX_RS01210) (Haloferax mediterranei). The assay can be described thus: SEC; Superose6 Increase 10/300 GL, 50 mM Tris-HCl pH 8.0, 150 mM NaCl; molecular mass estimated against standard proteins of 6.5 to 660 kDa in the same buffer.

For orientation: stoichiometry N means a count of units in the complex or per binding partner.

Take “Lrp transcriptional regulator from Haloferax mediterranei (HFX_RS01210) (natural protein)”: the stoichiometry N is 4.
